What was measured:
human PBMCs = assay: Soluble CD28 generation by SEB or CMV stimulated PBMCs, human CD28 ELISA; type: cell-based
Protocol: (§1) ELISA—Commercial ELISA kits were used for quantitation of the amount of human interferon-gamma (Biolegend, Cat. No. 430103), human interleukin 2 (Biolegend, Cat. No. 431802), human interleukin 6 (Biolegend, Cat. No. 430502), human interleukin 10 (Biolegend, Cat. No. 430603), human […] beta 1 (Biolegend, Cat. No. 436708), human interleukin beta 1 (Biolegend, Cat. No. 437004) and human CD28 (R&D system, Cat. No. DY342). Cell Proliferation and viability (MTT assay) was conducted according to manufacturer instructions (Roche, cat #11465007001). Kynurenine (IDO activity) ELISA kit was conducted according to manufacturer instructions (ImmuSmo Cat #BA E-2200).
(§2) Protease Inhibitors—Protease inhibitors were added at the indicated concentrations at the start of each experiment. In week long assays another portion of the inhibitors was added after 3 days at the final concentration. […] Where mentioned the protease cocktail was composed with a mixture of TAPI-1 and GM6001 at equimolar ratio.
SEB or CMV activation of PBMCs for the generation of soluble CD28—0.3×10^6 PBMCs were stimulated with 0.5 ng/mL SEB (Sigma, Cat. No. S4881) for 5-7 days at 37° C. with/without the indicated concentration of various protease inhibitors in 48 well plate. Alternatively, 0.1×10^6 PBMCs were stimulated with 0.5 ng/mL SEB in 96 well plate format assay. For CMV stimulation 0.5×10^6 PBMCs were stimulated with 0.5 μg/mL CMV peptivator (Milteny Biotec, Cat. No. 130-093-435) for 2-5 days at 37° C. with/without the indicated concentration of various protease inhibitors in a 96 well plate. For continuous shedding experiments PBMC were stimulated with SEB or CMV in 24 well plate for 24 hr, cells were taken and washed three times with RPMI without stimulant and plated again in a 96 well plate. Samples were taken at indicated times and put under freezing conditions until examination for soluble CD28.

Jurkat T cell line = assay: Soluble CD28 generation by PHA activated Jurkat T cell line, CD28 ELISA; type: cell-based, human; conditions: PHA 1-4 μg/mL, TAPI-1 and GM6001 cocktail 0.5-2 μM
Protocol: as §1, §2
(§3) PHA activation of CD4 T cells or Jurkat T cell line for the generation of soluble CD28—1×10^5 Jurkat cells or CD4 T cells were incubated with the indicated concentration of Phytohemagglutinin (Sigma, Cat. No. L8902) and various protease inhibitors for additional 5 (Jurkat) or 7 days (CD4 T cells).

human CD4 T cells = assay: Soluble CD28 generation by PHA activated CD4 T cells, CD28 ELISA; type: cell-based; conditions: PHA 1-4 μg/mL, TAPI-1 and GM6001 cocktail 0.5-2 μM
Protocol: as §1, §2, §3

[1] = tested on: isolated CD3 human T cells; assay: CD3 T cells stimulation with anti-CD3 OKT3, IFN gamma secretion; type: cell-based; conditions: for IFNγ secretion (agonism): anti-CD3 stimulation, CD28.2 2.0 μg/mL, antibodies 0.1-10 μg/mL
Protocol: T cells stimulation with OKT3—0.1×10^6 isolated CD3 T cells (from healthy donors) were stimulated with indicated amount of anti-CD3 clone OKT3 for 48-72 hr at 37° C. When stated recombinant human CD80-Fc (2 μg/mL, R&D system) was added in soluble form. Antibodies to CD28 or controls were added at the indicated concentration in soluble form.
CD80 is one of the two main ligands for mCD28 along with CD86. The extracellular domain of CD80 fused to an Fc moiety has been used as an immune stimulatory molecule and is under investigation as a cancer therapy. In order to examine the effect of sCD28 on CD80-Fc efficacy, isolated CD3 human T cells were stimulated with plate bound anti-CD3 antibody (OKT3, 2 μg/mL) in the presence of 2 μg/mL soluble recombinant human CD80-Fc.

mCD28 [2] = target: T1, mCD28 (Homo sapiens, UniProt P10747); assay: CD86 blocking FACS on HEK293 cells stably transfected with human CD28; type: binding; conditions: CD86-Fc 5 μg/mL; antibody 20 μg/mL
T1 construct: expressed in transfected cells
Protocol: CD86 blocking FACS—0.5×10^6 HEK293 cells stably transfected with human CD28 were incubated with 5 μg/mL CD86-Fc (R&D systems, Cat. No. 141-B2) without or with anti CD28 antibodies (20 μg/mL) for 30 min in room temperature. Cells were washed and taken for secondary binding using anti-human heavy and light chains antibody conjugated to fluorophore at 1:5000 dilution for 20 min on ice.

mCD28 [3] = target: T1, mCD28; assay: FACS binding to mCD28 on naïve CD3 T cells; conditions: antibody 20 μg/mL
Protocol: Flow Cytometry—Generally, cells were kept on ice during all steps. Prior to staining, 5×10^5 cells were blocked with 50 μg/mL human IgG (Sigma, Cat. No. 14506) in FACS buffer (PBS with 0.1% BSA) for 15 min. Antibodies were used at concentrations recommended by the manufacturer and incubated for 30 min. in the dark. Incubations were done in a volume of 100 μL in 96-well U bottom plates. Cells were washed twice with 200 μL of FACS buffer and transferred to FACS tubes in 150 μL of FACS buffer for analysis. Cells were analyzed on a Gallios Flow Cytometer (Beckman Coulter) using the Kaluza for Gallios Flow Cytometry Acquisition Software.
Lastly, the ability of antibodies #1-3 to bind to mCD28 at all was examined. While it is not essential that a sCD28 antibody not bind mCD28 it is advantageous. Such an antibody could be used for specific detection of the soluble protein, and if used therapeutically would have no effect on the membranal form. Naïve isolated CD3 T cells were evaluated by FACs to assay mCD28 binding. Cells were incubated with antibodies #1-3 (20 μg/mL dark grey histograms) or isotype controls (mIgG, 20 μg/mL, light grey histograms). Binding detection was performed with Alexa Fluor 647-conjugated goat anti mouse secondary antibody.

recombinant human CD28 = target: T2, recombinant human CD28 (Homo sapiens, UniProt P10747); assay: Direct CD28 ELISA on recombinant human CD28; type: binding
T2 construct: recombinant human CD28 lacking the transmembrane and cytoplasmic domains; purchased R&D 342-CD

sCD28 = assay: Simulated sweeping of soluble CD28 from plasma with antibody coated magnetic beads; set-up: species or system human; conditions: for sCD28 levels in plasma after beads: about 1.5 μg on beads
Protocol: Simulated sweeping of soluble CD28 from plasma of cancer patient. Antibodies or recombinant proteins were coated on tosyl-activated magnetic beads (Invitrogen, Cat. No. DY-14203) as described by manufacturer protocol. […] The mixture was incubated in a thermomixer for 2 hr, 1000 RPM at 37° C., followed by removal of the beads using a DynaMag magnet (Invitrogen, Cat. No. 12321D) and the samples were examined using CD28 specific ELISA.
Varying amounts (0.125-2 μg) of antibodies #1 and #2 were loaded onto tosyl-activated magnetic beads according to the manufacturer's protocol (Thermo Fisher Scientific). The loaded beads were then added to plasma samples from a cancer patient, and the mixture was incubated in a thermomixer at 37° C. for 2 hours at 1000 RPM. The beads were isolated and removed from the plasma with a magnet and the amount of sCD28 remaining in the serum was measured by ELISA.
Antibody #1 was further tested on various cancer samples (melanoma, colorectal and ovarian) and compared to three B7 molecules which are known ligands of CD28. About 1.5 μg of antibody #1, CD80, CD86 and ICOSL were each loaded onto tosyl-activated magnetic beads and the beads were mixed with plasma as before. A colorectal sample (FIG. 16C), as well as two melanoma samples (FIG. 16D-E), an ovarian sample (FIG. 16F) and a sample from a healthy donor (FIG. 16G) were all tested.

`CNC(=O)[C@@H](NC(=O)[C@H](CCCc1ccccc1)[C@H](C)N(O)C=O)C(C)(C)C` [GI254023X] was tested, and the “sCD28 release from activated immune cells” value (human PBMCs; PBMCs, SEB 1 ng/mL, inhibitor 0.01-1 μM) was “almost complete inhibition of sCD28 release” and the “sCD28 levels detected with antibodies of the invention” value (human PBMCs; stimulated cells with protease inhibitors, sandwich ELISA) was “Lower levels of sCD28”.

`CNC(=O)[C@H](Cc1c[nH]c2ccccc12)NC(=O)[C@@H](CC(=O)NO)CC(C)C` [GM6001] was tested, and the “amount of sCD28 in culture” value (human PBMCs; PBMCs stimulated with SEB or CMV, TAPI-1 and GM6001 protease inhibitor cocktail) was “diminish the amount of sCD28 in a dose dependent manner”, the “amount of sCD28 in supernatant” value (Jurkat T cell line) was “diminished the amount of sCD28” and the “amount of sCD28 in supernatant” value (human CD4 T cells) was “diminished the amount of sCD28”.

B1: CD80-Fc: extracellular domain of CD80 fused to an Fc moiety (protein)
chain: VIHVTKEVKEVATLSCGHNVSVEELAQTRIYWQKEKKMVLTMMSGDMNIWPEYKNRTIFDITNNLSIVILALRPSDEGTYECVVLKYEKDAFKREHLAEVTLSVKADFPTPSISDFEIPTSNIRRIICSTSGGFPEPHLSWLENGEELNAINTTVSQDPETELYAVSSKLDFNMTTNHSFMCLIKYGHLRVNQTFNWNTTKQEHFPDN
modifications: left off: a dimerising Fc or GST
notes: extracellular domain of CD80 fused to an Fc moiety
B1 was tested, and the IFN gamma secretion ([1]; plate bound OKT3 2 μg/mL, CD80-Fc 2 μg/mL) was “increased IFN gamma secretion”.

B2: antibody #3: sCD28 binding (sweeping) antibody; heavy chain SEQ ID NO: 50, light chain SEQ ID NO: 52 (antibody)
heavy: EVQLQQFGAELVKPGASVKISCKASGYTFTDYNMDWVKQSHGKSLEWIGDINPNYDSTAYNQKFMGKATLTVDKSSNTAYMELRSLTSEDTAVYYCARSSPYYDSNHFDYWGQGTSLTVSSAKTTPPSVYPLAPGSAAQTNSMVTLGCLVKGYFPEPVTVTWNSGSLSSGVHTFPAVLQSDLYTLSSSVTVPSSTWPSETVTCNVAHPASSTKVDKKIVPRDCGCKPCICTVPEVSSVFIFPPKPKDVLTITLTPKVTCVVVDISKDDPEVQFSWFVDDVEVHTAQTQPREEQFNSTFRSVSELPIMHQDWLNGKEFKCRVNSAAFPAPIEKTISKTKGRPKAPQVYTIPPPKEQMAKDKVSLTCMITDFFPEDITVEWQWNGQPAENYKNTQPIMDTDGSYFVYSKLNVQKSNWEAGNTFTCSVLHEGLHNHHTEKSLSHSPGK
light: QIVLTQSPAIMSASPGEKVTMTCSARSSINYMHWFQQKPGTSPKRWIYDTSKLASGVPARFSGSGSGTSYSLTISNMEAEDAATYYCHQRNSYPFTFGSGTKLEIKRADAAPTVSIFPPSSEQLTSGGASVVCFLNNFYPKDINVKWKIDGSERQNGVLNSWTDQDSKDSTYSMSSTLTLTKDEYERHNSYTCEATHKTSTSPIVKSFNRNEC
For B2, the “IFNγ secretion (agonism)” value [1] was “no effect on IFN secretion”, the “CD86 binding to mCD28” value (mCD28 [2]) was “none of antibody #1 (FIG. 15B), antibody #2 (FIG. 15C), or antibody #3 (FIG. 15D) blocked binding of CD86 to mCD28” and the “binding to mCD28 on the cell surface” value (mCD28 [3]) was “do not bind CD28 on the cell surface”.

B3: antibody #1: sCD28 binding (sweeping) antibody; heavy chain SEQ ID NO: 42, light chain SEQ ID NO: 44 (antibody)
heavy: QIQLVQSGPELKKPGETVKISCKASGYTLTNYGMNWVKQAPGKGLKWMGWINTYTGKPTYVDDFKGRFAFSLETSASTAYLQINNLKNEDTATYFCARGDANQQFAYWGQGTLVTVSAAKTTPPSVYPLAPGSAAQTNSMVTLGCLVKGYFPEPVTVTWNSGSLSSGVHTFPAVLQSDLYTLSSSVTVPSSTWPSETVTCNVAHPASSTKVDKKIVPRDCGCKPCICTVPEVSSVFIFPPKPKDVLTITLTPKVTCVVVDISKDDPEVQFSWFVDDVEVHTAQTQPREEQFNSTFRSVSELPIMHQDWLNGKEFKCRVNSAAFPAPIEKTISKTKGRPKAPQVYTIPPPKEQMAKDKVSLTCMITDFFPEDITVEWQWNGQPAENYKNTQPIMDTDGSYFVYSKLNVQKSNWEAGNTFTCSVLHEGLHNHHTEKSLSHSPGK
light: DIKMTQSPSSMYASLGERVTITCKASQDINSYLSWFQQKPGKSPKTLIYRANRLVDGVPSRFSGSGSGQDYSLTISSLEYDDMGIYYCLQYDEFPPTFGAGTKLELKRADAAPTVSIFPPSSEQLTSGGASVVCFLNNFYPKDINVKWKIDGSERQNGVLNSWTDQDSKDSTYSMSSTLTLTKDEYERHNSYTCEATHKTSTSPIVKSFNRNEC
With B3 the “IFNγ secretion (agonism)” value [1] was “no effect on IFN secretion”, the “detection compared to CD28.2” value (recombinant human CD28) was “nearly ten-times greater detection” and the “binding to sCD28” value (recombinant human CD28; immobilized recombinant human sCD28) was “much stronger binding to sCD28”. For the same molecule, the “CD86 binding to mCD28” value (mCD28 [2]) was “none of antibody #1 (FIG. 15B), antibody #2 (FIG. 15C), or antibody #3 (FIG. 15D) blocked binding of CD86 to mCD28”, the “binding to mCD28 on the cell surface” value (mCD28 [3]) was “bound mCD28” and the “comparison with CD80, CD86 and ICOSL” value (sCD28; about 1.5 μg each on beads) was “superior to the other three molecules tested”. The “sCD28 levels in plasma after beads” value (sCD28; all cases) was “at or below the levels observed in the healthy sample”, the “sCD28 levels in plasma after beads” value (sCD28; all samples except one melanoma sample) was “nearly undetectable levels” and the “removal of sCD28 from plasma” value (sCD28; cancer patient plasma, 0.125-2 μg antibody on beads, 37° C. 2 hours) was “capable of binding and removing sCD28 from plasma”. The “reduction of sCD28” value (sCD28; one of the melanoma samples (FIG. 16D)) was “greater than 50%”.

— patent US12139534B2, “Methods and compositions for decreasing soluble immune receptor CD28” (BIOND BIOLOGICS LTD., priority 2018, dated 2024)
